In patent publication US20190033318A1 (UNIVERSITY OF SOUTHAMPTON, published 2019):

B1: cyclo-CRVIIF (SEQ ID NO 4) (peptide)
peptide: CRVIIF
modifications: cyclic peptide (cyclo-, first amino acid joined to the last)
notes: also called Compound C
B2: CRVIIA (peptide)
peptide: CRVIIA
notes: also called alanine scan peptide of CRVIIF, position 6 (F to A)
B3: CAVIIF (peptide)
peptide: CAVIIF
notes: also called alanine scan peptide of CRVIIF, position 2 (R to A)
B4: cyclo-CKLIIF (SEQ ID NO 2) (peptide)
peptide: CKLIIF
modifications: cyclic peptide (first amino acid joined to the last)
B5: fluorescently labelled cyclo-CRVIIF (fluor-CRVIIF) (SEQ ID NO 4) (peptide)
peptide: cyclo(C(FITC‑maleimide)RVIIF)
modifications: not fully specified; printed as fluor-CRVIIF
notes: also called FITC-CRVIIF

Key:
[1] = target: T1, Trx-1α (thioredoxin-tagged HIF-1α 1-350, bHLH-PASA-PASB) (UniProt Q16665 1-350); assay: competition ELISA: His-tagged Trx-1α on Ni plate, peptide titrated, binding of GST-1β (blocked partner) detected with anti-GST, A450
T1 construct: range 1-350; not shown: Thioredoxin-His6 tag of vector pET32
Protocol: (§1) IC₅₀ values for the compound=3.7 μM/8.8 μM for 1α/2α.
(§2) 25 μL of His-tagged HIF-α protein (either Trx-1α, Trx-2α, 1α PASB, or 2α PASB) at 0.1 μM in HIF assay buffer were added to individual wells of a Pierce Ni²⁺-coated 96-well plate (Thermo) in triplicate. The plate was rocked gently at room temperature for 1 hr, before washing with 3×200 μL assay buffer (5 min incubation per wash). 25 μL of compounds and/or DMSO at the stated concentrations were added to the plate and allowed to equilibrate for 30 min prior to the addition of 25 μL of GST-1β at 0.2 μM in assay buffer for 1 hr. For conditions in which no compound or DMSO were used, GST-1β was added as a 0.1 μM solution. After incubation with GST-1β, the wells were washed with 3×200 μL assay buffer then 1×200 μL PBS. The wells were then incubated with 100 μL mouse α-GST antibody (Thermo, MS-707-P) at a 1/1000 dilution in PBS supplemented with 0.1% Tween-20 (PBST) and 2% non-fat powdered milk (Marvel) for 1 hr, followed by 3×200 μL washed with PBS. 100 μL of secondary HRP-conjugated α-mouse antibody (GE Healthcare) was added at a 1/6000 dilution in 2% milk/PBST for 1 hr, then washed with 3×200 μL PBS. […] Absorbance was read at 450 nm using a Tecan Infinite M200 Pro plate reader. Data were fitted and IC₅₀ values determined by non-linear regression using GraphPad Prism 6.

[2] = target: T2, 1α PASB (HIF-1α PASB domain, 238-349) (UniProt Q16665 238-349, labelled with NT-647-NHS dye in MST); assay: ELISA, 1α PASB on Ni plate, inhibition of GST-1β binding
T2 construct: range 238-349; not shown: His6 tag of vector pET28, then Met
Protocol: (§3) ELISA assays were conducted using 1α/2α PASB domains.
as §2

[3] = target: T3, Trx-2α (thioredoxin-tagged HIF-2α 1-360, bHLH-PASA-PASB) (UniProt Q99814 1-360); assay: competition ELISA: His-tagged Trx-2α on Ni plate, peptide titrated, binding of GST-1β (blocked partner) detected with anti-GST, A450
T3 construct: range 1-360; not shown: Thioredoxin-His6 tag of vector pET32
Protocol: as §1, §2

[4] = target: T4, 2α PASB (HIF-2α PASB domain, 240-350) (UniProt Q99814 240-350, labelled with NT-647-NHS dye in MST; 15N (and 13C 15N) labelled in NMR); assay: ELISA, 2α PASB on Ni plate, inhibition of GST-1β binding
T4 construct: range 240-350; also called PAS B domain of HIF-2α; not shown: His6 tag of vector pET28, then Met
Protocol: as §3, §2

[5] = target: T2, 1α PASB (HIF-1α PASB domain, 238-349); assay: MST, peptide titrated into fluorescently labelled 1α PASB
Protocol: (§4) Microscale thermophoresis (MST) was performed to determine Kd of peptide binding to fluorescently labelled HIF-1α/2α PASB domains.
(§5) 0.5 mL of 1α or 2α PASB protein stocks in HIF storage/assay buffer were dialysed against 1 L of MST labelling buffer (100 mM NaHCO₃ pH 8, 150 mM NaCl and 5% glycerol) for 1.5 hr at 4° C., then against 1 L of fresh labelling buffer at 4° C. overnight. 100 μL of each dialysed protein diluted to 10 μM were incubated with 100 μL of 30 μM NT-647-NHS dye (NanoTemper protein labelling kit) for 20 min in the dark, then exchanged into 650 μL HIF assay buffer supplemented with 0.05% Tween-20 using the supplied gravity flow purification columns. A dilution series of cyclo-CRVIIF (SEQ ID NO 4) or alanine scan analogues (in HIF assay buffer, 10% DMSO) was mixed with equal volumes of labelled 1α PASB or 2α PASB at 100 nM and allowed to equilibrate for 10 min. Samples were loaded into hydrophilic capillaries and, after optimising the power, MST was performed using a Monolith […] instrument (NanoTemper). Data were analysed using NT Analysis Software using the Temperature Jump analysis mode.

[6] = target: T4, 2α PASB (HIF-2α PASB domain, 240-350); assay: MST, peptide titrated into fluorescently labelled 2α PASB
Protocol: as §4, §5

[7] = target: T2, 1α PASB (HIF-1α PASB domain, 238-349); assay: thermal shift assay, 1 mM peptide
Protocol: (§6) Thermal denaturation of HIF proteins was performed in 20 μL reactions in triplicate using a Bio-Rad CFX Connect Real-Time System. Proteins were used at either 5 μM (Trx-1α, Trx-2α and GST-1β) or 15 μM (His-tagged PASB domains) in HIF assay buffer, with 10 mM DTT and SYPRO orange dye (Life Technologies) at a final concentration of 8×(relative to 5000×stock), and supplemented with either DMSO or compound dissolved in DMSO at the stated concentrations. The reaction plate was assembled on ice, then transferred to the pre-chilled thermal cycler, held at 10° C. for 5 min (heated lid, 105° C.), then the temperature ramped to 95° C. Fluorescence was recorded at 0.5° C. increments, holding for 5 sec at each temperature. Data were plotted using GraphPad Prism 6, and melting temperatures calculated using the first derivative method in which the peak (i.e. the steepest transition between data points) represents the point at which 50% of the protein sample is denatured. Errors are quoted as the inherent error associated with the first derivative of the data, i.e. ±0.25° C. for Tₘ values and ±0.5° C. for ΔTₘ values.

[8] = target: T5, 1β PASB (HIF-1β PASB domain, 356-474) (UniProt P27540 356-474); assay: thermal shift assay, 1 mM peptide
T5 construct: range 356-474; not shown: His6 tag of vector pET28
Protocol: as §6

[9] = target: T1, Trx-1α (thioredoxin-tagged HIF-1α …); assay: thermal shift assay, 1 mM peptide
Protocol: as §6

[10] = target: T4, 2α PASB (HIF-2α PASB domain, 240-350); assay: thermal shift assay, 1 mM peptide
Protocol: as §6

[11] = target: T3, Trx-2α (thioredoxin-tagged HIF-2α …); assay: thermal shift assay, 1 mM peptide
Protocol: as §6

[12] = target: T4, 2α PASB (HIF-2α PASB domain, 240-350); assay: competition ELISA: 2α PASB on Ni plate, peptide titrated, blocked partner GST-1β; the value stands in the panel without a name, the ELISA fits give IC50; the fall is only partial
Protocol: as §2

[13] = target: T2, 1α PASB (HIF-1α PASB domain, 238-349); assay: competition ELISA: 1α PASB on Ni plate, peptide titrated, blocked partner GST-1β; the value stands in the panel without a name, the ELISA fits give IC50; the fall is only partial
Protocol: as §2

[14] = target: T4, 2α PASB (HIF-2α PASB domain, 240-350); assay: competition ELISA: 2α PASB on Ni plate, peptide titrated, blocked partner GST-1β; the value stands in the panel without a name, the ELISA fits give IC50
Protocol: as §2

[15] = target: T2, 1α PASB (HIF-1α PASB domain, 238-349); assay: competition ELISA: 1α PASB on Ni plate, peptide titrated, blocked partner GST-1β; the value stands in the panel without a name, the ELISA fits give IC50
Protocol: as §2

[16] = target: T3, Trx-2α (thioredoxin-tagged HIF-2α …); assay: ELISA, Trx-2α on Ni plate, inhibition of GST-1β binding
Protocol: as §1, §2

[17] = target: T1, Trx-1α (thioredoxin-tagged HIF-1α …); assay: ELISA, Trx-1α on Ni plate, inhibition of GST-1β binding
Protocol: as §1, §2

[18] = target: T4, 2α PASB (HIF-2α PASB domain, 240-350); assay: fluorescence polarisation, 2α PASB titrated into 2 µM fluor-CRVIIF
Protocol: Kd values were determined by fluorescence polarisation (FP) using fluorescently labelled cyclo-CRVIIF (fluor-CRVIIF) (SEQ ID NO 4) dissolved in DMSO as the probe. In each condition, the concentration of the probe was kept constant (2 μM, 1% DMSO) whilst proteins were titrated. Reactions were performed in HIF assay buffer with the addition of 0.1% Triton X-100. Samples were assembled in black 96-well plates (40 μL/well, in triplicate) and allowed to equilibrate for 2 hr in the dark. Plates were read using a POLARstar Omega plate reader (BMG Labtech) at Ex: 490 nm, Em: 520 nm, with target gain set to 300 mP. Polarisation data were plotted and Kd values calculated by non-linear regression using GraphPad Prism 6.

[19] = target: T6, HIF-2α (construct not given) (UniProt Q99814 1-360, limits assumed); assay: HIF-2 ELISA, inhibition of HIF-2α/HIF-1β dimerisation
T6 construct: also called HIF-2 ELISA
T6 sequence (Q99814 1-360 limits assumed): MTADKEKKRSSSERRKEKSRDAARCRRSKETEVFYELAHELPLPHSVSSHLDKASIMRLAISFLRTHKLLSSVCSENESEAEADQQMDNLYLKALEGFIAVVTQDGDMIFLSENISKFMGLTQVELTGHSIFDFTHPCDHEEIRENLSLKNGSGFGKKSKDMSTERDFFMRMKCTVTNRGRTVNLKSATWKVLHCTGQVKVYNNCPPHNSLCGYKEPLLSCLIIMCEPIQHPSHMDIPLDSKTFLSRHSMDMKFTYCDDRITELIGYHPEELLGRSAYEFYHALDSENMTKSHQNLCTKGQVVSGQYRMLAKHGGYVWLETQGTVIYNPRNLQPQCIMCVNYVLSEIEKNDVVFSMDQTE

T3 sequence (Q99814 1-360): as the sequence (Q99814 1-360 limits assumed) above
T4 sequence (Q99814 240-350): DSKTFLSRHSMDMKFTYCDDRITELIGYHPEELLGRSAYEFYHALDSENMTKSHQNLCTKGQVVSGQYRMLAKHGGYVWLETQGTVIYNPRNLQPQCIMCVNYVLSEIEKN
T5 sequence (P27540 356-474): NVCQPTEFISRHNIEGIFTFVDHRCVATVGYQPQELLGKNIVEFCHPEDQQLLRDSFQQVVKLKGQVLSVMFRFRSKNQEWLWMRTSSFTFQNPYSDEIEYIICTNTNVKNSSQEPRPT

Binder | Kd [5] | Kd [6] | ΔTm [7] | ΔTm [8] | ΔTm [9] | ΔTm [10] | ΔTm [11] | also measured
B1 | 158 µM | 133 µM | -1.5 ° C. | -0.5 ° C. | -1 ° C. | -2.5 ° C. | -2 ° C. | IC50 [1]: 115 µM; IC50 [2]: 5.4 µM; IC50 [3]: 244 µM; IC50 [4]: 15.2 µM
B2 | – | – | – | – | – | – | – | IC50 [12]: 37.1 µM; IC50 [13]: 110 µM
B3 | – | – | – | – | – | – | – | IC50 [14]: 22.3 µM; IC50 [15]: 112 µM
B4 | 2.5 µM | 4.6 µM | -1 ° C. | -0.5 ° C. | -1.5 ° C. | -2.5 ° C. | -2.5 ° C. | IC50 [16]: 8.8 µM; IC50 [17]: 3.7 µM
B5 | – | – | – | – | – | – | – | Kd [18]: 18.5 µM; Activity as measured by a HIF-2 ELISA [19]: 1.46 µM
